The source of these data is article PMC5177617, “Complement Protein C1q Interacts with DC-SIGN via Its Globular Domain and Thus May Interfere with HIV-1 Transmission” (Frontiers in Immunology, 2016).

In assay [1] the target is soluble DC-SIGN tetramer (entire extracellular domain including the α-helical neck region) (UniProt Q9NNX6). The assay is described as follows: ELISA; DC-SIGN or DC-SIGNR (tetramer or monomer) coated (5, 2.5, 1.25, 0.625 µg/well, carbonate-bicarbonate buffer pH 9.6); ghA, ghB, ghC or mutants 2.5 µg/100 µl in 50 mM NaCl, 100 mM Tris-HCl pH 7.5, 5 mM CaCl2; 37°C […] then 4°C […]; detected with anti-MBP; percent binding against the wild-type module as 100%.

The target in assay [2] is soluble DC-SIGNR tetramer (entire extracellular domain including the α-helical neck region) (UniProt Q9H2X3). The assay is described as above.
The target of assay [3] is T1, soluble DC-SIGN tetramer (entire extracellular domain including the α-helical neck region) (UniProt Q9NNX6 59-404).
T1 construct: DC-SIGN, entire extracellular domain (α-helical neck region and carbohydrate recognition domain); also called DC-SIGN ECD; tetrameric DC-SIGN
T1 sequence (looked up): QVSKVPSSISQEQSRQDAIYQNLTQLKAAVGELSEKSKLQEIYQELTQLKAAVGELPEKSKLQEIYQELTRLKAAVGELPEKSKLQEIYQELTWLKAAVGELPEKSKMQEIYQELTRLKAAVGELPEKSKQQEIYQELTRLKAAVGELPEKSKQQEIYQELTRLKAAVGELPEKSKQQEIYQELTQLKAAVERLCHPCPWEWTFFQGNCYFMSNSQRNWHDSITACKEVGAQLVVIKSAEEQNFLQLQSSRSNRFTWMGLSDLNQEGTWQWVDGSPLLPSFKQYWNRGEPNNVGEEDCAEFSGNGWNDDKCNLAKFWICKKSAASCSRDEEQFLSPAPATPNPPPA
The assay is described as follows: ELISA; DC-SIGN or DC-SIGNR (tetramer or monomer) coated (5, 2.5, 1.25, 0.625 µg/well, carbonate-bicarbonate buffer pH 9.6); ghA, ghB, ghC or mutants 2.5 µg/100 µl in 50 mM NaCl, 100 mM Tris-HCl pH 7.5, 5 mM CaCl2; 37°C 1.5 h then 4°C 1.5 h; detected with anti-MBP; percent binding against the wild-type module as 100%. As to conditions: both partners purified.

Assay [4] deals with T2, soluble DC-SIGNR tetramer (entire extracellular domain including the α-helical neck region) (UniProt Q9H2X3 71-399).
T2 construct: DC-SIGNR (DC-SIGN-related), entire extracellular domain (α-helical neck region and carbohydrate recognition domain); also called DC-SIGNR ECD
T2 sequence (looked up): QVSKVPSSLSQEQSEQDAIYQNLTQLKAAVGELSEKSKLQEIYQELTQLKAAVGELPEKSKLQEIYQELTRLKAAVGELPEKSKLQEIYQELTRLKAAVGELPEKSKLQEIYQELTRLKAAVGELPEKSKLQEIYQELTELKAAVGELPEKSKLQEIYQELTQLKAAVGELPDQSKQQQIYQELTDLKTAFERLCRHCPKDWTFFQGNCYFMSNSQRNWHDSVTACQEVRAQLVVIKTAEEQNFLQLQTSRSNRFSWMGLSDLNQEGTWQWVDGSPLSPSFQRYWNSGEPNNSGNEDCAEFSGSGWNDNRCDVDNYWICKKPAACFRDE
Described as above. The conditions noted are these: both partners purified.

As to “ghB substitution mutant ArgB114Ala (from UniProt P02746 28-253) (domain or fragment)”, the % binding (wild-type module = 100%) in assay [1] came out at 57.4%; in assay [2] it was 61.4%. Besides, in assay [1], the % reduction in binding against wild-type ghB turned out to be 80%.

In assay [1], “ghB substitution mutant Tyr^B175Leu (from UniProt P02746 28-253) (domain or fragment)” displayed a % binding (wild-type module = 100%) of 37.9%, a % decrease in binding against wild-type ghB (at 0.625 µg of DC-SIGN) of less than 90% and a % reduction in binding against wild-type ghB of 82%. In assay [2], the % binding (wild-type module = 100%) turned out to be 37.2% and the % decrease in binding against wild-type ghB (at 0.625 µg of DC-SIGNR) is less than 90%.

Turning to “ghB substitution mutant Arg^B129Glu (from UniProt P02746 28-253) (domain or fragment)”, the % binding (wild-type module = 100%) in assay [1] was determined as 93.9%; in assay [2] it was 137%.

Take “ghB substitution mutant His^B117Asp (from UniProt P02746 28-253) (domain or fragment)”: the % binding (wild-type module = 100%) in assay [1] was determined as 36.4%; in assay [2] it was 41%.

Consider “ghC substitution mutant Leu^170Glu (domain or fragment)”, for which the % binding (wild-type module = 100%) turned out to be 78.3% in assay [1] and 79.8% in assay [2].

As to “ghA substitution mutant Arg^A162Glu (from UniProt P02745 23-245) (domain or fragment)”, the % binding (wild-type module = 100%) stood at 66.4% in assay [1] and 94.8% in assay [2]. In assay [2], this molecule displayed a % reduction in binding against wild-type ghA (at 5 µg of DC-SIGNR) of 15%.

For “ghB substitution mutant Arg^B114Gln (from UniProt P02746 28-253) (domain or fragment)”, the % binding (wild-type module = 100%) in assay [1] was 52.5%; in assay [2], 50.3%. The molecule also registered a % reduction in binding against wild-type ghB in assay [1] of 80%.

In the case of “ghA substitution mutant Arg^A162Ala (from UniProt P02745 23-245) (domain or fragment)”, the figures for the % binding (wild-type module = 100%) in assay [1] and in assay [2] were 77.7% and 73.2%, respectively.

For “ghC substitution mutant Arg^156Glu (from UniProt P02747 29-245) (domain or fragment)”, the figures for the % binding (wild-type module = 100%) in assay [1] and in assay [2] were 101% and 75.8%, respectively.

On to “ghB substitution mutant Arg^B163Glu (from UniProt P02746 28-253) (domain or fragment)”, for which the figures for the % binding (wild-type module = 100%) in assay [1] and in assay [2] were 48.3% and 65.7%, respectively.

Regarding “ghB substitution mutant Arg^B129Ala (from UniProt P02746 28-253) (domain or fragment)”, the % binding (wild-type module = 100%) is 75% in assay [1] and 92.5% in assay [2].

Take “ghB substitution mutant Arg^B163Ala (from UniProt P02746 28-253) (domain or fragment)”: the % binding (wild-type module = 100%) in assay [1] was 68.8%; in assay [2], 120%.

Consider “ghC substitution mutant His^101Ala (from UniProt P02747 29-245) (domain or fragment)”, for which the figures for the % binding (wild-type module = 100%) in assay [1] and in assay [2] were 90.2% and 113%, respectively.

B1: recombinant globular head module ghB of human C1q, fused to maltose-binding protein (domain or fragment, UniProt P02746 117-253, looked up)
chain: KATQKIAFSATRTINVPLRRDQTIRFDHVITNMNNNYEPRSGKFTCKVPGLYYFTYHASSRGNLCVNLMRGRERAQKVVTFCDYAYNTFQVTTGGMVLKLEQGENVFLQATDKNSLLGMEGANSIFSGFLLFPDMEA
notes: globular head region of the B chain of human C1q (ghB module); source: E. coli BL21, purified (amylose resin)
Regarding B1, the “% binding (wild-type module = 100%)” value in assay [3] and in assay [4] was 100% throughout.

B2: ghB substitution mutant Leu^B136Gly (domain or fragment)
chain: KATQKIAFSATRTINVPLRRDQTIRFDHVITNMNNNYEPRSGKFTCGVPGLYYFTYHASSRGNLCVNLMRGRERAQKVVTFCDYAYNTFQVTTGGMVLKLEQGENVFLQATDKNSLLGMEGANSIFSGFLLFPDMEA
Turning to B2, the “% binding (wild-type module = 100%)” value in assay [3] was determined as 47.7%; in assay [4], 54%.

B3: recombinant globular head module ghA of human C1q, fused to maltose-binding protein (domain or fragment, UniProt P02745 110-245, looked up)
chain: KDQPRPAFSAIRRNPPMGGNVVIFDTVITNQEEPYQNHSGRFVCTVPGYYYFTFQVLSQWEICLSIVSSSRGQVRRSLGFCDTTNKGLFQVVSGGMVLQLQQGDQVWVEKDPKKGHIYQGSEADSVFSGFLIFPSA
notes: globular head region of the A chain of human C1q (ghA module); as I recall ghA is residues 88-223 of the mature A chain with MBP at the N-terminus; source: E. coli BL21, purified (amylose resin)
For B3, the “% binding (wild-type module = 100%)” value in assay [3] and in assay [4] was 100% in each case.

B4: recombinant globular head module ghC of human C1q, fused to maltose-binding protein (domain or fragment, UniProt P02747 115-245, looked up)
chain: KQKFQSVFTVTRQTHQPPAPNSLIRFNAVLTNPQGDYDTSTGKFTCKVPGLYYFVYHASHTANLCVLLYRSGVKVVTFCGHTSKTNQVNSGGVLLRLQVGEEVWLAVNDYYDMVGIQGSDSVFSGFLLFPD
notes: globular head region of the C chain of human C1q (ghC module); as I recall ghC is residues 87-217 of the mature C chain with MBP at the N-terminus; source: E. coli BL21, purified (amylose resin)
B4: the “% binding (wild-type module = 100%)” value in assay [3] and in assay [4] was 100% throughout.
